Data from the supplement of paper PMC10065799, “High-throughput profiling of sequence recognition by tyrosine kinases and SH2 domains using bacterial peptide display” (eLife, 2023).

target: MERTK (UniProt Q12866); assay: phosphorylation enrichment, bacterial display (enrichment ratio); higher = better substrate or ligand; peptides without Tyr show the background
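Also: 11-residue human phosphosite peptides and single-mutation variants displayed on the E. coli surface, counted by deep sequencing, each peptide's frequency after selection divided by its frequency in the unselected input library; frequency after pTyr selection over input frequency; kinase dosed for 20-30% of maximal phosphorylation in three min.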

MERTK, sequence (Q12866 whole entry, looked up): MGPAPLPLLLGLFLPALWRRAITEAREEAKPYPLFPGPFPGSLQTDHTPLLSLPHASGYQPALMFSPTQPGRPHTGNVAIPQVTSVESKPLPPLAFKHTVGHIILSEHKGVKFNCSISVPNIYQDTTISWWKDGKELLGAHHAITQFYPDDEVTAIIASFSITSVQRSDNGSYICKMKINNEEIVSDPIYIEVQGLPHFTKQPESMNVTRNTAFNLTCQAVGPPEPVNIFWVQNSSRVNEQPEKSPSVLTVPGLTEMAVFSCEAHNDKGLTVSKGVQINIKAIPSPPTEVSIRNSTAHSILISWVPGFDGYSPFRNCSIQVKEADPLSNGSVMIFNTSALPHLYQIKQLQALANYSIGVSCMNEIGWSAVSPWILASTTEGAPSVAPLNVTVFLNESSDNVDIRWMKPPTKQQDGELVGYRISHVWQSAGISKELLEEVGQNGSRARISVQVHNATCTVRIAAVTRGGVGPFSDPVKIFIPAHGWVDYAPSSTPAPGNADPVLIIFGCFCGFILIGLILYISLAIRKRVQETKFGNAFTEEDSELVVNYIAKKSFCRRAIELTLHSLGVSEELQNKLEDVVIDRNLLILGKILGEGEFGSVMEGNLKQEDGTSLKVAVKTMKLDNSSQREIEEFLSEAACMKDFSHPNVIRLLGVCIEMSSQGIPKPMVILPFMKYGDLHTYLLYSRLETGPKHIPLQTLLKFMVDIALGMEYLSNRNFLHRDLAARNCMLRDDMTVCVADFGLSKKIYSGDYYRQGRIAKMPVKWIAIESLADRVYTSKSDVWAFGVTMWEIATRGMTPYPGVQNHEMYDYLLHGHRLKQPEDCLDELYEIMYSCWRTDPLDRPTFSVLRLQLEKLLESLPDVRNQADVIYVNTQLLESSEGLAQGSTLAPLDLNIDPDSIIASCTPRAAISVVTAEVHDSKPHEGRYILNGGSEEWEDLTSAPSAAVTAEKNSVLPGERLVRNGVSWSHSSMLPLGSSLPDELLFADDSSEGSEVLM

| Sequence | phosphorylation enrichment |
| --- | --- |
| LKRIAYFLCLR [LGI1_Y21_L26R] | 0.359 |
| TLGPFYPSRLF [CRYAA_Y18] | 0.43 |
| EIHTQYEAMAS [GFAP_Y242_R239H] | 0.428 |
| DSGKLYALDVL [INO80_Y1104] | 3.17 |
| KLFFIYTPGTT [SLC27A4_Y245_S247P_YF] | 0.363 |
| YGGLRCGYGVL [KRTAP20-2_Y13_Y13C] | 0.369 |
| NVDGKYSYLKV [GRM3_Y478_G475D] | 0.559 |
| RVEDACILTCN [CCT6A_Y229_Y229C] | 0.683 |
| TDTAAYEERVR [SPTB_Y474] | 1.2 |
| AEYGLYGAMVR [VSX2_Y222] | 1.97 |
| ADYYDYGHGLS [KHDRBS3_Y304] | 4.16 |
| YKWAVYCIIGR [NUP93_Y391_R388W] | 0.953 |
| YFCRWYRNQKS [EREG_Y144_R147Q] | 0.523 |
| GNLQEYLTRHV [TGFBR2_Y336] | 0.368 |
| ECIEFYELDKK [PMM2_Y145_R141C] | 0.485 |
| KDHRDYKYQPR [SOX9_Y172_P170R] | 0.456 |

tested on: AncSZ; assay: as above

| Sequence | phosphorylation enrichment |
| --- | --- |
| LKRIAYFLCLR [LGI1_Y21_L26R] | 0.997 |
| TLGPFYPSRLF [CRYAA_Y18] | 0.795 |
| EIHTQYEAMAS [GFAP_Y242_R239H] | 0.712 |
| DSGKLYALDVL [INO80_Y1104] | 0.921 |
| KLFFIYTPGTT [SLC27A4_Y245_S247P_YF] | 1.49 |
| YGGLRCGYGVL [KRTAP20-2_Y13_Y13C] | 0.857 |
| NVDGKYSYLKV [GRM3_Y478_G475D] | 0.705 |
| RVEDACILTCN [CCT6A_Y229_Y229C] | 0.994 |
| TDTAAYEERVR [SPTB_Y474] | 0.931 |
| AEYGLYGAMVR [VSX2_Y222] | 0.99 |
| ADYYDYGHGLS [KHDRBS3_Y304] | 3.92 |
| YKWAVYCIIGR [NUP93_Y391_R388W] | 1.23 |
| YFCRWYRNQKS [EREG_Y144_R147Q] | 0.565 |
| GNLQEYLTRHV [TGFBR2_Y336] | 0.794 |
| ECIEFYELDKK [PMM2_Y145_R141C] | 1.22 |
| KDHRDYKYQPR [SOX9_Y172_P170R] | 0.534 |

target: FGFR1 (UniProt P11362); assay: as above
Sequence (P11362 whole entry, looked up): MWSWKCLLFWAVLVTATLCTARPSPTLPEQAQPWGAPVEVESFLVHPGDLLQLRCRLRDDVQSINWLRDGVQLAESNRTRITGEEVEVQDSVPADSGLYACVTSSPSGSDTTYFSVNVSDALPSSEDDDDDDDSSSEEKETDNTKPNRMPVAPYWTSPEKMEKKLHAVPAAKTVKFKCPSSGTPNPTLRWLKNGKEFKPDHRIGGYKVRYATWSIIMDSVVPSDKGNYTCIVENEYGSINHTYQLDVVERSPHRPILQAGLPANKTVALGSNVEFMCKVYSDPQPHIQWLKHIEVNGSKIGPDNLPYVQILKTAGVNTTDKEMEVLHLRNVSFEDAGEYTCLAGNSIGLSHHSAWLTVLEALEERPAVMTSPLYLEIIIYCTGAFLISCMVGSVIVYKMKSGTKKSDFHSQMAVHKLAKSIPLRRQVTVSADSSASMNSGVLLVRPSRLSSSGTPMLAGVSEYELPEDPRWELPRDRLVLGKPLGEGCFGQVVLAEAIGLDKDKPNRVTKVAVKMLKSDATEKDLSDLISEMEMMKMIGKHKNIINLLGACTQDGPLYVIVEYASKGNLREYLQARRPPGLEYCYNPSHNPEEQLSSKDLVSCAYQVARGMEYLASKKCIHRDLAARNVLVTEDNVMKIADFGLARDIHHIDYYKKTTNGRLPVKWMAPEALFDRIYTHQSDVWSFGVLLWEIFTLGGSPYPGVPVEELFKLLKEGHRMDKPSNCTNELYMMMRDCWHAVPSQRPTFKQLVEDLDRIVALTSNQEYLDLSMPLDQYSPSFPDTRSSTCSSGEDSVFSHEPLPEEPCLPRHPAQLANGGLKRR

| Sequence | phosphorylation enrichment |
| --- | --- |
| LKRIAYFLCLR [LGI1_Y21_L26R] | 0.365 |
| TLGPFYPSRLF [CRYAA_Y18] | 0.581 |
| EIHTQYEAMAS [GFAP_Y242_R239H] | 0.527 |
| DSGKLYALDVL [INO80_Y1104] | 0.525 |
| KLFFIYTPGTT [SLC27A4_Y245_S247P_YF] | 0.553 |
| YGGLRCGYGVL [KRTAP20-2_Y13_Y13C] | 0.826 |
| NVDGKYSYLKV [GRM3_Y478_G475D] | 0.563 |
| RVEDACILTCN [CCT6A_Y229_Y229C] | 0.708 |
| TDTAAYEERVR [SPTB_Y474] | 0.581 |
| AEYGLYGAMVR [VSX2_Y222] | 0.456 |
| ADYYDYGHGLS [KHDRBS3_Y304] | 18.5 |
| YKWAVYCIIGR [NUP93_Y391_R388W] | 0.527 |
| YFCRWYRNQKS [EREG_Y144_R147Q] | 0.473 |
| GNLQEYLTRHV [TGFBR2_Y336] | 0.516 |
| ECIEFYELDKK [PMM2_Y145_R141C] | 0.569 |
| KDHRDYKYQPR [SOX9_Y172_P170R] | 0.482 |

tested on: c-Abl (mouse); assay: as above

| Sequence | phosphorylation enrichment |
| --- | --- |
| LKRIAYFLCLR [LGI1_Y21_L26R] | 0.708 |
| TLGPFYPSRLF [CRYAA_Y18] | 0.63 |
| EIHTQYEAMAS [GFAP_Y242_R239H] | 0.42 |
| DSGKLYALDVL [INO80_Y1104] | 0.643 |
| KLFFIYTPGTT [SLC27A4_Y245_S247P_YF] | 0.848 |
| YGGLRCGYGVL [KRTAP20-2_Y13_Y13C] | 0.589 |
| NVDGKYSYLKV [GRM3_Y478_G475D] | 0.557 |
| RVEDACILTCN [CCT6A_Y229_Y229C] | 0.86 |
| TDTAAYEERVR [SPTB_Y474] | 1.2 |
| AEYGLYGAMVR [VSX2_Y222] | 0.908 |
| ADYYDYGHGLS [KHDRBS3_Y304] | 0.986 |
| YKWAVYCIIGR [NUP93_Y391_R388W] | 0.981 |
| YFCRWYRNQKS [EREG_Y144_R147Q] | 0.444 |
| GNLQEYLTRHV [TGFBR2_Y336] | 0.667 |
| ECIEFYELDKK [PMM2_Y145_R141C] | 0.825 |
| KDHRDYKYQPR [SOX9_Y172_P170R] | 0.784 |
